Laboratory results taken from article PMC9424271, “Invariant surface glycoprotein 65 of Trypanosoma brucei is a complement C3 receptor” (Nature Communications, 2022).

Columns and labels:
[1] = molecular target: ISG65 1125G (residues 24-385) with C-terminal AviTag and His10 tag, biotinylated (T. brucei EATRO1125); assay: SPR; biotinylated ISG65G (CHO, ~800 RU) on a streptavidin chip (SA); C3b and C3c from 500 nM in two-fold dilutions to 15.6 nM; 30 ul/min, 25 C, 20 mM HEPES pH 7.4, 150 mM NaCl, 0.005% TWEEN-20; C3b fitted to a two-state reaction model, C3c to a 1:1 Langmuir model
[2] = molecular target: ISG65 1125G (residues 24-385), expressed with kifunensine and deglycosylated with Endo Hf (T. brucei EATRO1125); assay: SPR; ISG65 1125G immobilised by amine coupling (345 RU) on a CM5 chip; C3d from 4 uM in two-fold serial dilutions; 30 ul/min, 25 C, 20 mM HEPES pH 7.4, 300 mM NaCl, 0.05% TWEEN-20; 1:1 Langmuir model
Human complement C3b = molecular target: T1, Human complement C3b (human, UniProt P01024); assay: SPR; biotinylated ISG65G (CHO, ~800 RU) immobilised on a streptavidin chip (Series S SA); C3b and C3c from 500 nM in two-fold dilutions to 15.6 nM; 30 ul/min, 25 C, 20 mM HEPES pH 7.4, 150 mM NaCl, 0.005% TWEEN-20; C3b fitted to a two-state reaction model, C3c to the 1:1 Langmuir model; averages of three flow paths with different immobilisation levels; conditions: both partners purified
T1 construct: source: bought: Complement Technology
T1 sequence (P01024 23-667, chain 1 of 2): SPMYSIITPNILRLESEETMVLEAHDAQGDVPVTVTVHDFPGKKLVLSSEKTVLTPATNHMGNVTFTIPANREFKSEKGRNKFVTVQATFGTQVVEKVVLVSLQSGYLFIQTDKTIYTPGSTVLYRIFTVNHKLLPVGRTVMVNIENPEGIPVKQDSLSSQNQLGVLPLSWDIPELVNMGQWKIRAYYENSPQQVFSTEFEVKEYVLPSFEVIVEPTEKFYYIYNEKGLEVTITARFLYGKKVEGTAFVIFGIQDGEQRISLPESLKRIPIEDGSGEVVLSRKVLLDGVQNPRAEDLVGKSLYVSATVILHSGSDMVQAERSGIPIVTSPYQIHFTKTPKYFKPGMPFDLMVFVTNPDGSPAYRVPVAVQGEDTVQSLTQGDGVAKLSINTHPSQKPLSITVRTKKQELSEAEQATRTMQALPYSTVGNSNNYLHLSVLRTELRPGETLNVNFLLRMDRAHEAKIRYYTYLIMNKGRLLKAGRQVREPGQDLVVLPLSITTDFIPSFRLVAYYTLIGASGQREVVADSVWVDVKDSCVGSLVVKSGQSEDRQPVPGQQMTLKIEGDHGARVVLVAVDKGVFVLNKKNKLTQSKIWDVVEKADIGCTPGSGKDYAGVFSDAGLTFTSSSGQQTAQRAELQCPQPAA
T1 sequence (P01024 749-1663, chain 2 of 2): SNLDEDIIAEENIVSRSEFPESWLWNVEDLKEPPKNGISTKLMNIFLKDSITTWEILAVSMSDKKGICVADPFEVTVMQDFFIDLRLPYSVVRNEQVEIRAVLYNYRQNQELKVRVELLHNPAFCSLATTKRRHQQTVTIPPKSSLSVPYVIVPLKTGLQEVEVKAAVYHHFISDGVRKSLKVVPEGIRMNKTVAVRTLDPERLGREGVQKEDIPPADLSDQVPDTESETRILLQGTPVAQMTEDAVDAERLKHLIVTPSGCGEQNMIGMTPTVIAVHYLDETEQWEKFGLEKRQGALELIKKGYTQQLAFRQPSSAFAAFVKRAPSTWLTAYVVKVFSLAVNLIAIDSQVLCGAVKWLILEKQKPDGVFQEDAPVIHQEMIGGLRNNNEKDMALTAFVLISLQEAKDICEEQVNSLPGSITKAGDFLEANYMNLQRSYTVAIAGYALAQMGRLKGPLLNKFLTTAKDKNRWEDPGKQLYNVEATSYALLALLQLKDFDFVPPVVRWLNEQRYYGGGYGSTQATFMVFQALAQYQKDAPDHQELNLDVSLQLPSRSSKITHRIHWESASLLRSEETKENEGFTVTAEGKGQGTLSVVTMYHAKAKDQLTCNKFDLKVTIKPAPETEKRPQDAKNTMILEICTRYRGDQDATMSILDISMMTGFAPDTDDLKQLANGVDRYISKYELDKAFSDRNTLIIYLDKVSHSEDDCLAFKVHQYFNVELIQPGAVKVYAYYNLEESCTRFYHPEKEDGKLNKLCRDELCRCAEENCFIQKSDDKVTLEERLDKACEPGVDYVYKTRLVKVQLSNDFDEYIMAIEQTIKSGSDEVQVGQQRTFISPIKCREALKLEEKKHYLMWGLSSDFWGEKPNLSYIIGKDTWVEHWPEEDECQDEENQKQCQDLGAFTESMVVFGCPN

Human complement C3c = molecular target: T2, Human complement C3c (human, UniProt P01024); assay: as above; conditions: both partners purified
T2 construct: source: bought: Complement Technology; copies: + +
T2 sequence (P01024 23-667, chain 1 of 3): as the sequence (P01024 23-667, chain 1 of 2) above
T2 sequence (P01024 749-954, chain 2 of 3): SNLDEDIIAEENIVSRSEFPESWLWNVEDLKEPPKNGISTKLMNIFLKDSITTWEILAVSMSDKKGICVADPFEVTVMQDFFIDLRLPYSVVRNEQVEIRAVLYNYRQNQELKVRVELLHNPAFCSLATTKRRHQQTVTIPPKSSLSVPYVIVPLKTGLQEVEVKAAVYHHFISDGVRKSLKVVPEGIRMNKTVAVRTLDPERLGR
T2 sequence (P01024 1321-1663, chain 3 of 3): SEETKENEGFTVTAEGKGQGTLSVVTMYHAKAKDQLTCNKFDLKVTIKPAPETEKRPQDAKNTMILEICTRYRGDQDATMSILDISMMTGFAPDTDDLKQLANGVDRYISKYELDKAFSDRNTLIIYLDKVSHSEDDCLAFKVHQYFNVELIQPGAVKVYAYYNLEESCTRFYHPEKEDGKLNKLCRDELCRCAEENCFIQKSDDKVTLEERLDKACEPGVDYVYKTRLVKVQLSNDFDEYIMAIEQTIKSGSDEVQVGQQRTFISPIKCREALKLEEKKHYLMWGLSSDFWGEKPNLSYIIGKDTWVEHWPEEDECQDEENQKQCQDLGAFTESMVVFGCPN

[3] = molecular target: T3, Complement C3d (residues 996-1303 of H. sapiens C3, C1010A) (human, UniProt P01024 996-1303, C1010A); assay: SPR; ISG65 1125G immobilised by amine coupling (345 RU) on a CM5 chip; C3d from 4 uM in two-fold dilutions; 30 ul/min, 25 C, 20 mM HEPES pH 7.4, 300 mM NaCl, 0.05% TWEEN-20; 1:1 Langmuir model; averages of three repeats on the same flow path; conditions: both partners purified
T3 construct: also called C3d-WT; TED domain
T3 sequence (P01024 996-1303 C1010A): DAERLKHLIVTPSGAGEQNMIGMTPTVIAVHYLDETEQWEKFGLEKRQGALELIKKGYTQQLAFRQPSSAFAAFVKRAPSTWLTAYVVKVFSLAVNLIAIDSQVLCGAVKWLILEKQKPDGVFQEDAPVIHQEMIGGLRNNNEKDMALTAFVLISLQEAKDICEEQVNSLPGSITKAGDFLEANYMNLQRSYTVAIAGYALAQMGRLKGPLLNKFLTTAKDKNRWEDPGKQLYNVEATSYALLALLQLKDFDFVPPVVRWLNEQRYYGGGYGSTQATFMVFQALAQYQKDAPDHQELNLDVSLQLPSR

“human complement C3b (from UniProt P01024 749-1663) (domain or fragment)” was tested, and the Kd [1] was 40 nM.

In the case of “human complement C3c (domain or fragment)”, the Kd [1] is reported as 750 nM.

Molecule “human complement C3d (C3 residues 996-1303, C1010A) (from UniProt P01024 996-1303) (domain or fragment)” has a Kd [2] of 602 nM.

B1: ISG65 1125G (residues 24-385), biotinylated (domain or fragment)
chain: EDNRVPGDKNLTKEGAAALCKMKHLADKVAEKRSQELKDRTQNFAGYIEFELYRIDYWLEKLNGPKGRKDGYAKLSDSDIEKVKEIFDKAKDGIAKQLPEAKKAGEDAEKLHTEVKEAAANARGQDLDDHKQKSTGLYRVLNWYCITKEESHNATPNCDGIQFRNHYLSVNRSAIDCSSTGYEENYDWSANALQVALNSWENVKPKKLESAGSDENCNIGQSSESHPCTMTEEWQTHYKETVKKLKELEGAHEKGRRAHDAMLGYANTAYAVNTKVEQEKPLAEVIAAAKEAGKKGAKIIIPAAAPVTPTNSTKNEDSAPTEHVDRGIATNETQVEVGIDADFDGLLEAAEAAEVTRRHQKTGSGSGSASG
modifications: biotin on the AviTag
notes: also called ISG65G; ISG65 E1125G
With B1 the Kd (Human complement C3b) was 67 nM, the Kd (Human complement C3c) was 391 nM and the koff (Human complement C3c) was 0.008 s⁻¹. It also gave a kon (Human complement C3c) of 20000 M⁻¹ s⁻¹.

B2: ISG65 1125G (residues 24-385), expressed with kifunensine and treated with Endo Hf (domain or fragment)
chain: B1 chain
notes: also called ISG65G
B2 was tested, and the Kd [3] was 514 nM, the koff [3] was 0.1 s⁻¹ and the kon [3] was 300000 M⁻¹ s⁻¹.
